Laboratory results published in paper PMC5662751, “Post-transcriptional gene silencing mediated by microRNAs is controlled by nucleoplasmic Sfpq”.

Molecular target: T1, Sfpq wild-type (human, UniProt P23246 1-707)
T1 sequence: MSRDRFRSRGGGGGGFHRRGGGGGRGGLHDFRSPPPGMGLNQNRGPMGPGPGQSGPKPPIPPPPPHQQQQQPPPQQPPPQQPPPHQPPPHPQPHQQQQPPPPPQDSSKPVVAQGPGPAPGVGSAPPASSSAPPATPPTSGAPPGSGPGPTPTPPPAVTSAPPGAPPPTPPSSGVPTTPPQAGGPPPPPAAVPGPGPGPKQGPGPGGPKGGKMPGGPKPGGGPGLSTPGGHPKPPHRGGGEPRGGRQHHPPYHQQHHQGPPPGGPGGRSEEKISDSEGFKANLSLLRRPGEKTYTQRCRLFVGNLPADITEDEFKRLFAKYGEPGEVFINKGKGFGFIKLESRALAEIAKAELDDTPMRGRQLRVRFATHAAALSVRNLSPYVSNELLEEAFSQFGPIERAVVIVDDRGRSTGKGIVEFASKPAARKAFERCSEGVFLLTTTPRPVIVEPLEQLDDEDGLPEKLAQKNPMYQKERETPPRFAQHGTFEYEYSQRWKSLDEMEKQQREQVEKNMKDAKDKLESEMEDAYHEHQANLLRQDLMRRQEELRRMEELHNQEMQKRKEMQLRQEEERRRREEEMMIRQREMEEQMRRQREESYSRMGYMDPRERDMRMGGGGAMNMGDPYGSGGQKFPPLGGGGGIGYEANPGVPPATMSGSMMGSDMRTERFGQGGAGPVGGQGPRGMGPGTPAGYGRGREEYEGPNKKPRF
Experiment: UV crosslinking; 100 nM Sfpq; EMSA: 75 mM Hepes pH 7.9, 150 mM NaCl, 75 mM KCl, 0.1 mM EDTA, 5 mM DTT, 5 mM PMSF, 15% glycerol, 15 min, room temperature; AFM: 120 mM NaCl, 24 mM Tris-HCl pH
Details: protein: recombinant, tags: 6xHis (pET15b), chain copies: 2, label: 32P

B1: Sfpq negative RNA oligo (CCCCG x2) (ssRNA)
RNA: CCCCGCCCCG
  binding result: no binding

B2: CUGU/CUGUA x2 oligo (ssRNA)
RNA: CUGUACUGUA
Two copies of CUGUA (contains CUGU)
  binding result: binds
